Columns and labels:
[1] = system: Apo-2L.0 and DR5; assay: IC50
From the text: Table printed on a drawing sheet, FIG._4C
Title: Step 3: Truncation Scan
The patent's description of the figure: FIGS. 4A-4D provide illustrations of the protocols used to modify Apo-2L receptor binding peptides.
Where the first naming reader finds the target: passage: inhibit the interaction between Apo-2L.0 (amino acids 114 to 281 of SEQ ID NO: 1) and DR5 (SEQ ID NOs: 105 and 109)

[2] = biological target: T1, Hu DR5 ECD (SEQ ID NO: 105) (Homo sapiens, UniProt O14763, A67V/E190F/V191A); assay: Phage competition Ic50 ELISA (phagemid binding assay), competitor DR5 ECD; settings: Positive clones, competitor DR5 ECD (Comp/DR5 EcD)
T1 construct: Human DR5-ECD long form polypeptide
Procedure: The Apo-2L receptor binding peptides disclosed herein were identified from the bacteriophage peptide library constructs shown in Tables I and II using the following phagemid binding assay.
1. Coat microtiter plate wells with 80 ul of 1 ug/ml Apo-2L receptor DR5 ECD (SEQ ID NO: 105) (in 50 mM sodium carbonate pH 9.6) at 4° C. overnight.
2. Remove coat and block with 200 ul PBS/0.1% BSA. Incubate 1 hour at room temperature.
3. Prepare competing receptor solutions (100 ul/sample).
Dispense SOul binding buffer to row H through B in a new non-sticky 96-well plate.
Dispense 75 ul competing receptor solution to row A.
Make 3-fold serial dilutions by transferring 25 ul solution along columns except for row H (use fresh tip set for each transfer).
4. Prepare appropriate subsaturating phage dilution (predetermined from phage dilution series).
Transfer 50 ul of phage diluent to each microtiter well of the non-sticky plate. Start at row H then G,F,E,D,C,B,A respectively.
Incubate at R.T. for 2 hours.
5. Shake block off plate which has been coated with DR5 ECD (SEQ ID NO: 105) and rinse 10 times with PBS+0.05% tween 20.
6. Transfer 80 ul the mixture of competing receptor and phage from the non-sticky plate to DR5 ECD coated plate and incubate 20 minutes at room temperature.
7. Make a 1:5000 dilution of HRP conjugate anti-M13 monoclonal Ab (Amersham Pharmacia Biotech) into binding buffer.
Rinse plate 10 times with PBS/tween20 (be thorough here to remove vast excess of non displaying phage).
Add 80 ul of Ab diluent to row H through A.
8. Mix TMB peroxidase substrate and peroxidase solution B at equal volume.
Rinse plate 10 times with PBS/tween20.
Add 80 ul of substrate to row H through A.
Incubate as required to develop and stop with 80 ul 2.5M H2SO4.
A number of bacteriophage clones expressing peptides of interest were generated using the above methods and then purified using limiting dilution. In order to further characterize specific clones of interest (e.g. to determine Ic 50 values), phage clones were grown and then purified using a polyethylene glycol based method as described in Sidhu et al., Methods Enzymol. 328, 333-363 (2000). Alternative methods for generating and purifying bacteriophages are also known in the art. See, e.g. Current Protocols In Molecular Biology, Volume 1, Units 1, 5 and 6, Frederick M. Ausubel et al. eds., 1995.
Phage clones identified using the above methods were grown and then purified using the following polyethylene glycol based method. Briefly, a bacterial culture infected with a phage clone of interest is grown under conditions favorable to phage growth and then centrifuged for 10 min at 2° C. and 16,000 g. The supernatant is then transferred to a fresh centrifuge tube and a 1/5 volume of PEG-NaCl (PEG 8000 (200 g/L), NaCl (146 g/L), autoclaved) is added. The mixture is then incubated for 5 minutes at room temperature. The mixture is then centrifuged as above and the supernatant decanted. The supernatant is then respun briefly and the remaining supernatant removed. The phage pellet is then resuspended in 1/20 volume of PBS (or other analogous buffer). Insoluble matter is then pelleted by centrifugation. The supernatant containing the purified phage is saved and used in assays such as Ic 50 and Ec 50 assays that are described in the following examples.
In the Tables provided herein, “Ic 50” refers to the measure of the concentration of peptide needed to inhibit 50% of Apo-2L (e.g. amino acids 114 to 281 of SEQ ID NO: 1) binding to an Apo-2L receptor molecule (e.g. DR4-IgG (SEQ ID NO: 108) or DR5 ECD (SEQ ID NO: 105) etc.). The peptides are classified such that class 1-class 4 represent a, b, c, and d respectively.

[3] = biological target: Human DR5-ECD long form polypeptide (human); assay: phage competition ELISA (Comp/DR5 ECD)
[4] = biological target: Human DR5-ECD long form polypeptide (human); assay: phage competition ELISA, cross-reactivity

Molecule | IC50 [2] [nM] | IC50 [3] [nM] | further results
EVCMTSCEKLMSAL [C1-14] |  |  | IC50 [1]: 39 nM
Hd5-10: first generation (G1) peptide lead, SEQ ID NO: 14 (NVDQECMTTCTRLRECQLLL) | 78.4 |  | 
LB940 (GEVCLTSCSRLK) | > 100 |  | 
LB933 (GEVCLTTCSRIR) | 23.8 |  | 
2Hd7-20 (CVAMTSCDKLRLCQLL) [Peptide 2Hd7-20] | 29 |  | 
EVCMTSCEKLM [C1-11*] |  |  | IC50 [1]: 2940 nM
EVCMTSCEKLMSA [C1-13] |  |  | IC50 [1]: 49 nM
2H9-15 (EVCMTSCDRLKQAFLL) [Peptide 2H9-15] | 78.4 |  | 
LB932 (GEVCLSSCSRLR) | > 100 |  | 
3H857-13 (VEAGEVCLTLCEKLM) [Peptide 3H857-13] | 167 |  | 
LB939 (GEVCLTSCSRVR) | > 100 |  | 
LB931 (GEVCMTSCSRLR) | > 100 |  | 
LB936 (GEVCLTSCERIR) | 9 |  | 
2Hd7-3 (CVAMTTCDKLRECMAI) [Peptide 2Hd7-3] | 49 |  | 
EVCMTSCEKLMSALSL |  |  | IC50 [1]: 79 nM
930-S8-4 (AVGEVCLTECSRLIQR) [Peptide 930-S8-4] | 11.2 |  | 
G1A (AEVCLTSCSRLR) [Peptide G1A] | 9.8 |  | 
2Hd7-1 (CVAMTTCSKLRQCLSA) [Peptide 2Hd7-1] | 4.9 |  | 
871-31-S3 (ESRGEVCLTSCERLR) [Peptide 871-31-S3] | 14.9 |  | 

Molecule | IC50 [2] [nM] | IC50 [3] [nM] | further results
2Hd7-2 (CVAMTSCEKLRSCLLL) [Peptide 2Hd7-2] | 19.6 |  | 
3H858-2 (IRVGEVCMTTCEKLM) [Peptide 3H858-2] | 66.7 |  | 
E2A (GAVCLTSCSRLR) [Peptide E2A] | 49 |  | 
LB882 (GEVCLTSCERLR) | 14.9 |  | 
EVCMTSCEKLM (phage-displayed) [LB848] |  | 29400 | 
GEVCLTSCSALR (phage-displayed) [R10A] |  | 9.8 | 
CVAMTTCDKLRECMAI (phage-displayed) [2Hd7-3] |  | 49 | 
EVCMTSCEKLMSA (displayed on phage) [LB846] |  | 49 | 
ESRGEVCLTSCERLR (phage-displayed) [871-31-S3] |  | 14.9 | 
CVAMTTCSKLRQCLSA (phage-displayed) [2Hd7-1] |  | 4.9 | 
GEACLTSCSRLR (phage-displayed) [V3A] |  | 9.8 | 
EVCMTSCEKLMS (displayed on phage) [LB847] |  | 735 | 
GEVCLTECSKLR (displayed on phage) [LB959] |  | 23.5 | IC50 [4]: 23.5 nM
GEVCLTSCSRIR (displayed on phage) [LB938] |  | 11.9 | 
CVAMTSCDKLRLCQLL (phage-displayed) [2Hd7-20] |  | 29 | 
GEVCLTMCSRLR (displayed on phage) [LB935] |  | 4.5 | 
GEVCLTLCSKLT (displayed on phage) [LB956] |  | 35.3 | IC50 [4]: 35.3 nM
RLPGEVCLTSCERLL (phage-displayed) [871-4-S3] |  | 149 | 
CVAMTSCEKLRSCLLL (displayed on phage) [2Hd7-2] |  | 19.6 | 

Molecule | IC50 [2] [nM] | IC50 [3] [nM] | further results
GEVCLTECSKLT (phage-displayed) [LB963] |  | 11.8 | IC50 [4]: 11.8 nM
EVCMTSCEKLMSALSL (phage-displayed) [2H9-13] |  | 79.1 | 
GEVCLTSCARLR (phage-displayed) [S9A] |  | 12.7 | 
GEVCLTSCDRLR (phage-displayed) [LB937] |  | 11.9 | 
GEVCLTLCSRLR (phage-displayed) [LB934] |  | 3 | 
FEQGEVCMTLCEKLM (phage-displayed) [3H858-1] |  | 83.3 | 
GEVCLTLCSKLR (displayed on phage) [LB952] |  | 424 | IC50 [4]: 424 nM
GEVCLTTCSRIR (phage-displayed) [LB933] |  | 23.8 | 
GRVCLTLCSKLR (phage-displayed) [LB954] |  | 23.5 | IC50 [4]: 23.5 nM
VEAGEVCLTLCEKLM (phage-displayed) [3H857-13] |  | 167 | 
EVCMTSCDRLKQAFLL (phage-displayed) [2H9-15] |  | 78.4 | 
CVAMTTCEKLRLCQSL (phage-displayed) [2Hd7-7] |  | 6.9 | 
GEVCLTSCERIR (displayed on phage) [LB936] |  | 9 | 
GEVCLTSCERLR (phage-displayed) [LB882] |  | 14.9 | 
GEVCLTECSRLT (phage-displayed) [LB960] |  | 17.6 | IC50 [4]: 17.6 nM
EVCMTSCEKLMSAL (phage-displayed) [LB845] |  | 39.2 | 
GEVCLTLCSRLT (displayed on phage) [LB953] |  | 23.5 | IC50 [4]: 23.5 nM
QEVCMTSCDKLMKANWMAAM (phage-displayed) [LB867] |  | 29.4 | 

— patent publication US20070066800A1, “Apo2l(trail) receptor binding peptides and uses thereof” (priority 2003, published 2007)
